Our source for the MFI, Fold change to WT CD80 and fold increase to WT ECD values is US20250163127A1.

Values joined by “and” are separate entries in the source; they are usually repeats but may differ in a detail not shown here. Equal entries are not always repeated.

The target in assay [1] is CD28 (human) (UniProt P10747). Kind of assay: flow cytometry, transfected cells.
The target of assay [2] is CTLA-4 (Homo sapiens (Human)) (UniProt P16410). Put plainly: flow cytometry, transfected cells.
Chain of CTLA-4 (Homo sapiens (Human)) (P16410 36-223): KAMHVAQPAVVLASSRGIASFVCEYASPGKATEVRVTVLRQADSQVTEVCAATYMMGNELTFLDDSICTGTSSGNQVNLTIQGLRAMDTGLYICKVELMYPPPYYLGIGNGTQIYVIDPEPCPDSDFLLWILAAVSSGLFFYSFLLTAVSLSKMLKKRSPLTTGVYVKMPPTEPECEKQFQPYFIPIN
In assay [3] the target is PD-L1 (human). Kind of assay: flow cytometry, cells expressing PD-L1.
Chain of PD-L1 (human) (chain, as listed by the source): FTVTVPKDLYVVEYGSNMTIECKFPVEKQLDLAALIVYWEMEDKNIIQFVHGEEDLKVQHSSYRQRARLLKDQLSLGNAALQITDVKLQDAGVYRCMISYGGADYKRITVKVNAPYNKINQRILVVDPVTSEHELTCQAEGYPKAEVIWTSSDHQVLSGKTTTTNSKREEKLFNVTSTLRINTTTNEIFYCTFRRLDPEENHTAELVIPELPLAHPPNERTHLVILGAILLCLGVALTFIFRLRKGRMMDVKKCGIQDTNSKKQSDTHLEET
In assay [4] the target is CD28 (human) (UniProt P10747). Kind of assay: flow cytometry, Jurkat cells (CD28).
In assay [5] the target is CTLA-4 (human). Put plainly: flow cytometry, CHO cells expressing CTLA4.
Chain of CTLA-4 (human) (chain, as listed by the source): as the sequence (P16410 36-223) above
The target of assay [6] is PD-L1 (human). Kind of assay: flow cytometry, CHO cells expressing PD-L1.
Assay [7] addresses CD28 (human) (UniProt P10747). Kind of assay: flow cytometry, cells expressing CD28.
Assay [8] addresses CD112R (human) (UniProt Q6DKI7). Put plainly: flow cytometry, transfected HEK293 cells.
Assay [9] concerns the target T1, CD226 (human) (UniProt Q15762).
T1 sequence: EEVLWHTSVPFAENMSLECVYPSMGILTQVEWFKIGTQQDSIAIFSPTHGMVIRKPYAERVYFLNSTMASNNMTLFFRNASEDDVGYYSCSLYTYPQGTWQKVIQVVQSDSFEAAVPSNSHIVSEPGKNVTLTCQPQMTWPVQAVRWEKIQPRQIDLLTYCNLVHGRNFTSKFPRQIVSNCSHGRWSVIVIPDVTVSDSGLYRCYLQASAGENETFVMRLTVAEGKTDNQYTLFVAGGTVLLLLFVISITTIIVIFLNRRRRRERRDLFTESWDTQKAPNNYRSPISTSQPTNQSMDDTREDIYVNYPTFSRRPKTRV
Put plainly: flow cytometry, transfected HEK293 cells.

The target in assay [10] is T2, CD96 (human) (UniProt P40200).
T2 sequence: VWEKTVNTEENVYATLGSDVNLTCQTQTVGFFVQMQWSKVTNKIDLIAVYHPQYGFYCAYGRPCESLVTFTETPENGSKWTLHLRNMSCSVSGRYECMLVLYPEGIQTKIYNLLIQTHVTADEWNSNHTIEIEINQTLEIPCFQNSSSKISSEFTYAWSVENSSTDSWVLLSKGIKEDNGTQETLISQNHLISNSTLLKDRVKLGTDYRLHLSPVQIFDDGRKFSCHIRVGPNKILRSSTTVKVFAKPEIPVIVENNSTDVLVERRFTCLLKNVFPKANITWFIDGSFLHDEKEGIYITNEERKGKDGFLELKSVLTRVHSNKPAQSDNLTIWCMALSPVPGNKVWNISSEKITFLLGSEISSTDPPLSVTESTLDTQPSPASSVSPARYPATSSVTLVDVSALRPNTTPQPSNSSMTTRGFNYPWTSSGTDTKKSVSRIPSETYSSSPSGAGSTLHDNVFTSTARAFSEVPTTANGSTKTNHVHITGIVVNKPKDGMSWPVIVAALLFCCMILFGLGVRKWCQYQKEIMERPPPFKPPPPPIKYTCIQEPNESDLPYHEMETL
Kind of assay: flow cytometry, transfected HEK293 cells.

The target of assay [11] is T3, TIGIT (human) (UniProt Q495A1).
T3 sequence: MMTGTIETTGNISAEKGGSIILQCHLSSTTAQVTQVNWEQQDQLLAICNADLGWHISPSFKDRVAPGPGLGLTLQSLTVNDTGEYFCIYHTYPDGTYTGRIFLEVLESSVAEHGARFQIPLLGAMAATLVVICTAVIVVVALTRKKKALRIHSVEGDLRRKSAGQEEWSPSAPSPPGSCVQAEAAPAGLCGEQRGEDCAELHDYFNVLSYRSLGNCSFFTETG
Put plainly: flow cytometry, transfected HEK293 cells.

Chain of CD112R (human) (Q6DKI7 whole entry): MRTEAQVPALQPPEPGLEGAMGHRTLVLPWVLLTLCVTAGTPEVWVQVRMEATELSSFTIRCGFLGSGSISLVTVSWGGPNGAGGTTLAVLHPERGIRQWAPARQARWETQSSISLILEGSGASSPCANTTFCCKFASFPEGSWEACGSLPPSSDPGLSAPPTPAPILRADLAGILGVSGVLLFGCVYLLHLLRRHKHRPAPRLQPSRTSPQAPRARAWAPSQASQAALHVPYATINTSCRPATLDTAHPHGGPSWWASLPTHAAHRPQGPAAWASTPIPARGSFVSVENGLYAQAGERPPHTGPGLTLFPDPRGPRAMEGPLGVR
Chain of wild-type CD155 IgV-Fc (Fc fusion) (chain): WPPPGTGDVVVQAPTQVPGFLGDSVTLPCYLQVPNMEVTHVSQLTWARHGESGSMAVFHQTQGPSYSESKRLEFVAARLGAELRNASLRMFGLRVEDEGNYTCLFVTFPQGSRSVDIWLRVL
Chain of WT CD80 (Fc fusion) (chain): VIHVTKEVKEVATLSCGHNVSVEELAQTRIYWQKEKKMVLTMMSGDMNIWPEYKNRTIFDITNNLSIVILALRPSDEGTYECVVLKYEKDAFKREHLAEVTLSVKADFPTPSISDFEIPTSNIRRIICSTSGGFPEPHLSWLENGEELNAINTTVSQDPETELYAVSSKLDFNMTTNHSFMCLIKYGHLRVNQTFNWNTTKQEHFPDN

As for ICOSL-Fc N52D/N57A/Q100A (Fc fusion), the values for the MFI in assay [1] and in assay [2] were 138000 MFI and 340000 MFI, respectively.

Turning to ICOSL-Fc N52D/Q100S (Fc fusion), the MFI was determined as 95700 MFI in [1] and 333000 MFI in assay [2].

ICOSL-Fc N52G/N57P/Q100D (Fc fusion): the MFI in [1] turned out to be 5720 MFI; in assay [2], 10200 MFI.

ICOSL-Fc N52P/N57P (Fc fusion) had an MFI in assay [1] of 21000 MFI.

For the substance ICOSL-Fc N52R/N57F/Q100N (Fc fusion), the MFI came to 161000 MFI in assay [1] and 233000 MFI in [2].

As to ICOSL-Fc N52R/N57F/Q100P (Fc fusion), the MFI in assay [1] came to 154000 MFI; in [2], 504000 MFI.

Take ICOSL-Fc N52R/N57F/Q100R (Fc fusion): the figures for the MFI in assay [1] and in [2] were 185000 MFI and 464000 MFI, respectively.

For ICOSL-Fc N52R/N57W (Fc fusion), the MFI turned out to be 137000 MFI in assay [1] and 318000 MFI in assay [2].

In the case of ICOSL-Fc N52R/N57Y/Q100P (Fc fusion), the MFI in assay [1] was found to be 133000 MFI; in assay [2], 502000 MFI.

Consider ICOSL-Fc N52S/N57A/Q100A (Fc fusion), for which the MFI in [1] amounted to 98200 MFI; in assay [2], 233000 MFI.

As to ICOSL-Fc N52S/N57L/Q100G (Fc fusion), the MFI in assay [1] came out at 71900 MFI; in assay [2] it was 79400 MFI.

Regarding ICOSL-Fc N52T/N57K/Q100P (Fc fusion), the MFI amounted to 88700 MFI in assay [1] and 78300 MFI in [2].

In the case of ICOSL-Fc N52T/N57Y/Q100A (Fc fusion), the MFI was determined as 161000 MFI in [1] and 341000 MFI in assay [2].

For ICOSL-Fc N52V/N57L/Q100A (Fc fusion), the results for the MFI in assay [1] and in assay [2] were 132000 MFI and 252000 MFI, respectively.

Take WT CD80 (Fc fusion): the MFI in assay [3] came out at 70 MFI.

“variant CD80 A26E/E35D/M47L/A71G (Fc fusion)”: the Fold change to WT CD80 was 0.12 fold in assay [4] and 4.49 fold in [6]. The MFI at 33.3 nM in assay [4] was found to be 2160 MFI; in assay [5] it was 341000 MFI; in assay [6], 53400 MFI.

For the substance variant CD80 E35D/A71G (Fc fusion), the MFI at 33.3 nM in [5] is 184000 MFI; in [6] it was 34100 MFI.

With “variant CD80 E35D/D46E/M47V/A71D (Fc fusion)”, the MFI at 33.3 nM in assay [6] amounted to 549 MFI.

In the case of “variant CD80 E35D/D46E/M47V/A71D/D90G (Fc fusion)”, the MFI at 33.3 nM is 275000 MFI in assay [5] and 32400 MFI in assay [6].

Substance “variant CD80 E35D/D46V/M47L/V68M/L85Q/E88D (Fc fusion)” yielded an MFI at 33.3 nM in assay [6] of 137000 MFI.

Turning to “variant CD80 E35D/K37E/M47V/N48D/L85Q/D90N (Fc fusion)”, in assay [6], the MFI at 33.3 nM is 26500 MFI.

Take “variant CD80 E35D/M38T/D46E/M47V/N48S (Fc fusion)”: the MFI at 33.3 nM in assay [6] was 19400 MFI.

With “variant CD80 E35D/M38T/M43V/M47V/N48R/L85Q (Fc fusion)”, the MFI at 33.3 nM in [5] came to 204000 MFI; in assay [6], 21800 MFI.

Take “variant CD80 E35D/M42V/M47V/E52D/L85Q (Fc fusion)”: the Fold change to WT CD80 in [4] is 0.07 fold; in assay [5], 1.44 fold. In addition, the MFI at 33.3 nM in assay [4] worked out at 1290 MFI; in assay [5], 226000 MFI; in [6], 11900 MFI.

Take “variant CD80 E35D/M43I/M47V/K89N (Fc fusion)”: the results for the MFI at 33.3 nM in [5] and in assay [6] were 278000 MFI and 19200 MFI, respectively.

As for “variant CD80 E35D/M47I/Y87Q/K89E (Fc fusion)”, the figures for the MFI at 33.3 nM in [4] and in [6] were 15500 MFI and 29800 MFI, respectively.

“variant CD80 E35D/M47L/A71G/L85Q (Fc fusion)” gave an MFI at 33.3 nM in assay [4] of 1440 MFI.

Regarding variant CD80 E35D/M47V/A71G (Fc fusion), the MFI at 33.3 nM turned out to be 6360 MFI in assay [4] and 36200 MFI in [6].

For “variant CD80 E35D/M47V/A71G/E88D (Fc fusion)”, the Fold change to WT CD80 in assay [4] worked out at 0.35 fold; in [6], 3.13 fold. In addition, the results for the MFI at 33.3 nM in [4], in assay [5] and in assay [6] were 6240 MFI, 212000 MFI and 37100 MFI, respectively.

“variant CD80 E35D/M47V/N48T/L85Q (Fc fusion)”: the MFI at 33.3 nM was 692 MFI in assay [4] and 35500 MFI in assay [6].

Turning to “variant CD80 E35D/M47V/T62A/A71D/K93E (Fc fusion)”, the MFI at 33.3 nM came to 226000 MFI in [5] and 693 MFI in assay [6].

The substance “variant CD80 E35D/T41S/M43I/A71G/D90G (Fc fusion)” returned an MFI at 33.3 nM in assay [5] of 208000 MFI.

On to “variant CD80 E35D/T41S/M43I/M47L/A71G (Fc fusion)”, for which the MFI at 33.3 nM in assay [4] came out at 3100 MFI; in assay [5], 209000 MFI.

On to “variant CD80 E35D/T41S/M43I/M47V/A71G (Fc fusion)”, for which the figures for the MFI at 33.3 nM in assay [4] and in assay [6] were 2840 MFI and 44400 MFI, respectively.

As to “variant CD80 H18Y/A26E/E35D/M47L/L85Q/D90G (Fc fusion)”, the Fold change to WT CD80 in assay [4] turned out to be 0.2 fold; in assay [5], 1.47 fold. Also, the figures for the MFI at 33.3 nM in [4], in assay [5] and in assay [6] were 3540 MFI, 231000 MFI and 52400 MFI, respectively.

Substance variant CD80 H18Y/E35D/N48K (Fc fusion) yielded an MFI at 33.3 nM in assay [5] of 261000 MFI.

“variant CD80 I30V/E35D/M47V/A71G/A91V (Fc fusion)”: the MFI at 33.3 nM amounted to 205000 MFI in assay [5] and 43900 MFI in assay [6].

“variant CD80 K36E/I67T/L70Q/A91G/I118V/T120S/T130A/N152T (Fc fusion)” returned an MFI in [7] of 8 MFI.

The substance “variant CD80 L70Q/A91G/N144D (Fc fusion)” showed an MFI in [3] of 6 MFI.

Regarding “variant CD80 Q27H/E35D/D46V/M47L/A71G (Fc fusion)”, the MFI at 33.3 nM in assay [4] turned out to be 10400 MFI.

Consider “variant CD80 Q33R/E35D/M47V/N48K/L85M/F92L (Fc fusion)”, for which the MFI at 33.3 nM was found to be 2680 MFI in assay [5] and 21400 MFI in assay [6].

In turn, “variant CD80 V22D/E35D/M47L/L70M/L97Q (Fc fusion)” registered an MFI at 33.3 nM in [4] of 527 MFI.

Consider “variant CD80 V22D/E35D/M47L/L85Q (Fc fusion)”, for which the MFI at 33.3 nM in assay [4] was 542 MFI; in [5], 256000 MFI.

For the substance “variant CD80 V22L/Q27H/E35D/M47I/A71G (Fc fusion)”, the Fold change to WT CD80 was 0.4 fold in assay [4] and 0.96 fold in assay [5]. Besides, the MFI at 33.3 nM in [4] was determined as 7270 MFI; in assay [5] it was 152000 MFI; in assay [6], 43800 MFI.

With “variant CD80 Y31H/T41G/M43L/L70Q/A91G/I118V/T120S/I126V/T130A (Fc fusion)”, in assay [3], the MFI amounted to 6 MFI.

With “variant CD155 IgV-Fc, S52L, L104E (Fc fusion)”, the MFI at 100 nM is 1760 in [8], 2210 in assay [9], 1830 in assay [10] and 4320 in [11]. Further, the fold increase to WT ECD in [8] worked out at 0.99 fold; in assay [10] it was 0.02 fold.

Consider variant CD155 IgV-Fc, S52Q (Fc fusion), for which the MFI at 100 nM in [8] is 1790; in assay [9], 2020; in assay [10], 1820; in [11], 2290. Besides, the fold increase to WT ECD was 1 fold in assay [8] and 0.02 fold in [10].

On to “variant CD155 IgV-Fc, T45Q, S52R, G111R (Fc fusion)”, for which the MFI at 100 nM in assay [8] is 1790; in [9], 2080; in assay [10], 2340; in assay [11] it was 4090. In addition, the results for the fold increase to WT ECD in assay [8] and in [10] were 1.01 fold and 0.02 fold, respectively.

Consider wild-type CD155 IgV-Fc (Fc fusion), for which the MFI at 100 nM in [8] is 2170 and 1740 and 2940; in [9], 2320 and 2370 and 4690; in assay [10], 1890 and 1680 and 3270; in assay [11], 1960 and 2180 and 4690. Moreover, the fold increase to WT ECD in [8] was 1.22 fold and 0.98 fold and 1.65 fold; in assay [10], 0.02 fold; in assay [11], 0 fold.
